B1: TPR t1 (parent)
chain: GACCAAUCUGCCCUCAGAGCUCGAGAACAUCUUCGGAUGCAGAGGAGGCAGGCUUCGGUGGCGCGAUAGCGCCAACGUCCUCAACCUCCAAUGCAUCCCACCACAUGAUGAUGCCUGAAGAGCCUUGGUUUUUUG

Variants of: B1
Assay: polymerase ribozyme fitness, log enrichment relative to wild type (log ratio); higher = more active; in vitro selection for triplet polymerase activity
Method in brief: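 In triplicate, a single round of in vitro selection was run on each mutant library, PCR-built and transcribed, covering one subunit of a heterodimeric triplet polymerase ribozyme. Frozen incubation at −7 °C followed annealing with a biotinylated primer, partner subunit and triplets, and extended constructs were then gel-excised, streptavidin-captured and taken through RT-PCR. Fitness is the logarithm of genotype enrichment over wild-type enrichment, from inverse-variance-weighted replicate averages of Illumina-sequenced inputs and outputs. […] only genotypes with ≥10 input reads and ≥1 read per output were kept.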

| Variant | polymerase ribozyme fitness (log ratio) |
| --- | --- |
| U14G C15U C49G G58A U78C | -5.83 |
| U14A C70G U126C G135U | -4.99 |
| C15A A91G C123A | -2.45 |
| U14G A37U A41G G47U C86A U87C | -4.82 |
| U14G G61U C86G C115G | -5.92 |
| C15A C28G | -4.4 |
| U14C C97U | -3.31 |
| C15G A27G A95G G110U | -5.6 |
| U14A A90G | -2.78 |
| U14C G93A | -2.47 |
| C15A G57U A91G C123A | -3.21 |
| U14A G51U C124U G135A | -3.03 |
| U14A G36U A46C A91U C114G A121U G122A | -5.85 |
| C15A A37U G52C G63A U87A G120C | -4.33 |
| C15A C28G G61A G120A | -2.11 |
| C15A C56A G117U | 0.157 |
| C15A A26G G44U C89A G120C | -5.42 |
| U14G G52A G93A | -3.09 |
| U14C C49G A84C U106G U133G | -5.32 |
| U14G G35A A46G U96A C114U | -5.86 |
| C15G C70G U132C | -6.73 |
| U14A C15A A41U G44A C82A U92G C123A | -5.11 |
| C15A G57U | -2.02 |
| C15A G57C | -1.91 |

| Variant | polymerase ribozyme fitness (log ratio) |
| --- | --- |
| U14A C72U C85A G93A | -3.6 |
| U14G A37C G47A G110U G120U | -5.99 |
| C15G C53G C56G G61A | -3.41 |
| C15A A37C C49A C72G | -2.75 |
| U14G C40A | -2.06 |
| C15A G48C G52C | -4.44 |
| U14G G71U | -2.33 |
| U14C A18G U21C G69U A103C C115U | -5.98 |
| C15G A37U G48U G77U G122A | -4.17 |
| U14G A27G G113A A121G U133A | -1.42 |
| U14C C72U U78G C115U U116C | -3.05 |
| U14A C85U | -2.79 |
| C15A A29C U78A | -4.3 |
| U14C G77C G113A | -5.53 |
| U14C G63C | -2.35 |
| U14A U21A U30G G58C C76U U112C A118C | -5.04 |
| C15G A27C A41G C114U U116C | -7.35 |
| C15A A46U C76U C101U C115U | -4.21 |
| U14C U106A G110A U112A | -3.36 |
| C15A A118G | -2.6 |
| U14G G69U C85A | -2.32 |
| U14G C40G G69A | -3.52 |
| U14A C62G C89U C123A | -3.6 |
| C15A A27C | -4.33 |

| Variant | polymerase ribozyme fitness (log ratio) |
| --- | --- |
| U14C C49U U130A | -2.74 |
| C15A A29U C73U C115U U131A | -2.29 |
| C15G C40A A121G U129C | -3.1 |
| U14A G36U A37U | -3.4 |
| C15A C123A | -1.02 |
| C15A C123U | -1.1 |
| C15A G69C C94U U126A | -5.2 |
| U14A G63C A83U C86A U112A U131A | -2.09 |
| U14C A66U | -3.21 |
| C15A U55G G71A C88A | -2.35 |
| C15A G52C G63U G93U C97U | -5.64 |
| C15A U92G | -4.55 |
| C15G C40A C76G G77C G117C | -0.354 |
| U14A C40U G44C C49A | -3.39 |
| U14A A66U C98U | -4.97 |
| U14G G61A | -1.48 |
| C15A C64U | -2.36 |
| C15G A119G | 0.41 |
| C15G C73A C82G G117U U130C | -0.6 |
| U14A C124A U130A | 0.939 |
| U14A G122A | -1.5 |
| U14A G47C | -2.72 |
| U14A G47U | -3.55 |
| U14C C72A A111U | -6.13 |

| Variant | polymerase ribozyme fitness (log ratio) |
| --- | --- |
| C15A G47U C73A C115A A121C U133C | -5.41 |
| C15G C20A G69U U81A C124A | -1.08 |
| U14C A111U | -4.43 |
| C15A C22U C62G A83U C98A C123A U125A | -6.9 |
| C15A G47U C80U C86A | -3.28 |
| U14A A46C U81C C82U | -3.9 |
| C15A G52A G60A U112C U116C | -3.35 |
| U14A C49U G71A | -3.73 |
| C15A A27G G39A G44A G69U G71U C82U C88U C102U | -6.86 |
| U14A G60C C97G C123A | -5.56 |
| C15A G45A C97U A121G U130G | -0.808 |
| C15A A18U C53A U112C G127A | -5.64 |
| C15A G69U C101A C123U G127A | -4.17 |
| U14A U32C C82A | -3.24 |
| U14A G44C G58U | -2.72 |
| U14C C53G C73U A83G C94U | -3.11 |
| C15A G45U G61U A84U C123U | -2.78 |
| C15A C88A | -1.56 |
| C15A C88G | -2.59 |
| U14G A50C C56G C89U A95G | -3.5 |
| U14C G127A U129A | -3.26 |
| C15A A18U C98U G107C G113U U125G | -6.57 |
| C15A G42U C79U C115G C123A | -5.36 |
| U14A G57C G58A G61A A105C U109G | -6.86 |

| Variant | polymerase ribozyme fitness (log ratio) |
| --- | --- |
| U14G A91U A111G | -4.63 |
| U14C G110A | -2.2 |
| C15A U129A | -3.18 |
| U14C C15U G39A C72G G117A | -1.31 |
| U14C C53A | -1.96 |
| U14G C70G | -3.6 |
| U14A G63U G113A | -5.73 |
| C15A U126A | -4.9 |
| C15A U59A C101A | -3.37 |
| C13U U112A U126G | 0.677 |
| C15A C98U G117A | -4.11 |
| C15A G39A G61A C123U | -0.349 |
| C15A A27C U55A | -5.44 |
| C15A C80U | -1.68 |
| U14A A105G | -5.21 |
| U14C C70G C82U U106A | -3.34 |
| C15A G42U C85U G120C | -1.73 |
| C15A C62U | -2.04 |
| C15G C22U | -5.53 |
| C15A G69U | -1.16 |
| U14C C56G A119U | -3.8 |
| U14C G93U U112A | -2.43 |
| U14A U59A A91G | -4.05 |
| U14A A29U | -3.64 |

| Variant | polymerase ribozyme fitness (log ratio) |
| --- | --- |
| U14A G47A C102A A121C | -2.83 |
| U14G C49A U96A | -3.85 |
| C15G C49G G71U A74U U106C C124U | -5.29 |
| U14A A74G G77C G120C | -0.447 |
| U14A U54A | -2.74 |
| C15A U59A | -2.31 |
| C15A U132C | -1.46 |
| C15A U132A | -2.04 |
| C15A G135U | -2.9 |
| U14A C15A C20U U55G | -3.71 |
| C15A G122A | -1.85 |
| C15A G39C A41U C101U | -3.77 |
| C15A G36U A121G | 0.928 |
| U14A U54A U130G | -4.16 |
| U14G G48A C104A | -3.69 |
| U14G C20A C73U C102U U133A | -4.53 |
| C15A G57U G61A U112C G113A U132C | -6.11 |
| C15G A29C G71C C86U G113U G120U U129A | -6.08 |
| C15A C98U | -3.62 |
| C15A C73G C123A | -2.17 |
| U14G C85G A95C C101G | -6.61 |
| U14A C94G | -3.05 |
| U14G A27U C94A | -5.54 |
| C15G C56U | -2.17 |

| Variant | polymerase ribozyme fitness (log ratio) |
| --- | --- |
| C15A G77U G122A C123A | -2.19 |
| U14A A37C A43U A90U U130G | -2.85 |
| C13U U109C | -2.24 |
| C13U U109G | -4.64 |
| C13U U109A | -5.03 |
| U14A A121U | 1.98 |
| U14C G69U A83U C114G C123G | -1.4 |
| U14A G61A A90C A91C | -4.3 |
| C13U U130A U133A | -1.2 |
| U14G C40A G42C C80U G120U | -3.6 |
| C15A C62G U92C A121U | -4.25 |
| C15A C76A | -2.53 |
| C15A C53U | -1.61 |
| U14A G48A C53G C64U | -2.48 |
| C15G A66U | -4.55 |
| U14G A37C | -2.99 |
| C15A | -1.85 |
| C15G | -2.16 |
| C15A A111U | -5.13 |
| U14A A46U G61A A84U C85U | -4.32 |
| U14C C70G | -4.01 |
| U14A A74G | -2.63 |
| U14A C22A G61C G65A C101U G120C | -7.89 |
